Results on 6 molecules are retold here after patent US7906310B2, “Proteases” (Novozymes A/S, priority 2003, dated 2011).

The nature of series [1]: Stability assay: residual activity after incubation with 1 mM inhibitor, measured by pNA assay. It is filed as physicochemical. On the set-up: key to Residual Enzyme Activity: fraction of activity at 0 h incubation (0.80 = 80%). The following applies: for Stability in the presence of 1 mM Cu2+ / Residual Enzyme Activity: 25° C.; for Residual Enzyme Activity: 1 mM Cu2+, pH 7, 0.1% K-sorbate, relative to 0 hours; for Feature i): residual activity at least 0.80 after 164 hours with 1 mM Cu2+: pH 7, 25° C., 0.1% K-Sorbate. As for the experimental part: Feature i) is determined as residual (=rest, or remaining) enzyme activity after having incubated the enzyme for 164 hours, at pH 7 and 25° C., in assay buffer supplemented with 0.1% K-Sorbate (for preservation purposes), and in the presence of 1 mM Cu^2+. The residual activity is measured relative to the activity after 0 hours of incubation. For the protease of the invention, the residual activity is at least 0.80 (=80%).
(§1) Protease activity is measured using the substrate Suc-AAPF-pNA, in assay buffer at pH 7.0 and 25° C. For more details, please refer to the pNA assay described in Example 4, which also describes in detail the determination according to i) and ii).
(§2) 20 ul (microliters) protease (diluted in 0.01% Triton X-100) was placed in a well of a micro titer plate. The assay was started by adding 200 ul pNA substrate (50 mg dissolved in 1.0 ml DMSO and further diluted 100× with assay buffer). The increase in OD405 was monitored as a measure of the protease activity.
The protease was diluted to approx. 1 mg/ml (see below) in assay buffer with 0.1% (w/v) K-sorbate (potassium salt of sorbic acid) and 1 mM inhibitor. The mixture was incubated at 25° C.). At intervals, a sample was withdrawn from the incubation (after thorough mixing) and frozen. After dilution in assay buffer, residual activity was measured using the pNA assay. For the 1 mM inhibitor additions, the incubation was diluted in assay buffer with 5 mM EDTA in order to see a pure stability effect.
Protease concentrations were estimated from the theoretical molar extinction coefficients, E280 (1 M), which can be calculated from the amino acid composition using the formula: E280 (1 M)=5690*NTrp+1280*NTyr+120*NCys, where NTrp, NTyr, and NCys are the number of Trp, Tyr, and Cys amino acid residues in the protease (Gill, S. C., von Hippel, P. H., Analytical Biochemistry 182: 319-326 (1989)) and the molecular weight, Mw, of the protease calculated from the amino acid sequence. From an A280 measurement of a pure protease sample (more than 95% pure according to Example 2), the protease concentration was calculated as: Conc (mg/ml)=(A280*MW)/E280 (1 M)).
The stability of the various proteases in the presence of the various inhibitors in a concentration of 1 mM was tested as described above. The only inhibitor that had some effect on the stability of some of the proteases was Cu^2+. However, the effect of this inhibitor was not the same on all the proteases: See the results in Table 2 below showing that Protease 18 and the Brachysporiella proteases are indeed stable in the presence of 1 mM Cu^2+, while the other proteases are not.

The nature of series [2]: pNA assay: protease activity with 1 mM Cu2+ relative to control without Cu2+. The format is biochemical. The following applies: enzyme 1 mg/l, Suc-AAPF-pNA, pH 7, 25° C.; for Enzyme Activity, +1 mM Cu^2+: 1 mM Cu2+; for Relative Activity: activity with 1 mM Cu2+ relative to control without Cu2+; for Enzyme Activity, Control (no Cu^2+): no Cu2+. As for the experimental part: as §1
Feature ii) is determined as the enzyme activity in the presence of 1 mM Cu^2+, relative to the activity of the same enzyme under the same conditions, except for the presence of Cu^2+. For the protease of the invention, this relative activity is at least 0.66 (=66%). For the purposes of feature ii), enzyme (protease) activity is measured as described above.
pNA substrate: Suc-AAPF-pNA (Bachem L-1400) or Boc-VLGR-pNA (Bachem L-1205). Temperature: 25° C.
as §2
First, the effect of various Cu^2+ concentrations was tested with an enzyme dosage of 1 mg/l. At least in the range of 0 to 1 mM Cu^2+ there seemed to be a linear relationship between inhibition and concentration of Cu^2+, the inhibition manifesting itself as a decrease in the enzyme activity with increasing concentrations of Cu^2+ (the enzyme activity being measured as average OD405 increase/time from the linear part of dose/response curves).

B1: Brachysporiella protease: protease from Brachysporiella gayana CGMCC 0865, amino acids 1-186 of SEQ ID NO: 14 (protein, listed as Brachysporiella gayana)
chain: MELTSLIAALAVILPIAYGVPMDATTNLSPKVLAAMKRDLGLDAREATARVTFERRAGDVIEELRSSLGDSFAGAWVTDGKVINIGVTDQALVSKVKEAGAEPMVMKNSLGKLQEAKKKLDQIIKEKPKTLSTSGKPGIATYYVDIETNKLIITALSTSITQAEDLAKEVGLSESEFEVRKTEKMP
For B1, the “Stability in the presence of 1 mM Cu2+” value in series [1] is “stable”. The “Residual Enzyme Activity” value in series [1] (incubation time 0 hours) came to 1.000; in series [1] (incubation time 3.1 hours), 1.022; in series [1] (incubation time 18.6 hours), 1.073; in series [1] (incubation time 44.0 hours) it was 1.057; in series [1] (incubation time 116.0 hours) it was 1.029; in series [1] (incubation time 164.0 hours), 1.053. In addition, the “Residual Enzyme Activity” value in series [1] (incubation time 188.6 hours) was determined as 0.984. Also, in series [1], the “Feature i): residual activity at least 0.80 after 164 hours with 1 mM Cu2+” value was “fulfil feature i)”. In addition, the “Enzyme Activity, +1 mM Cu^2+” value in series [2] is 50.5 mOD405/min. Moreover, in series [2], the “Relative Activity” value is 0.695. The “Enzyme Activity, Control (no Cu^2+)” value in series [2] was 72.6 mOD405/min.

B2: Protease 08: protease from Nocardiopsis alba DSM 15647, amino acids 1-188 of SEQ ID NO: 10 (protein, listed as Nocardiopsis alba)
chain: ATGPLPQSPTPDEAEATTMVEALQRDLGLSPSQADELLEAQAESFEIDEAATAAAADSYGGSIFDTDSLTLTVLVTDASAVEAVEAAGAEAKVVSHGMEGLEEIVADLNAADAQPGVVGWYPDIHSDTVVLEVLEGSGADVDSLLADAGVDTADVKVESTTEQPELYADIIGGLAYTMGGRCSVGFAA
As to B2, the “Residual Enzyme Activity” value in series [1] (incubation time 0 hours) was 1.000; in series [1] (incubation time 3.1 hours), 0.936; in series [1] (incubation time 18.6 hours), 0.867; in series [1] (incubation time 44.0 hours) it was 0.842; in series [1] (incubation time 116.0 hours), 0.767; in series [1] (incubation time 164.0 hours) it was 0.721. For the same molecule, the “Residual Enzyme Activity” value in series [1] (incubation time 188.6 hours) is given as 0.703. Further, the “Enzyme Activity, +1 mM Cu^2+” value in series [2] came out at 174.5 mOD405/min. Further, the “Enzyme Activity, Control (no Cu^2+)” value in series [2] is listed as 216.0 mOD405/min.

B3: Protease 11: protease from Nocardiopsis prasina DSM 15648, amino acids 1-188 of SEQ ID NO: 6 (protein, listed as Nocardiopsis prasina)
chain: ATGPLPQSPTPEADAVSMQEALQRDLGLTPLEADELLAAQDTAFEVDEAAAAAAGDAYGGSVFDTETLELTVLVTDAASVEAVEATGAGTELVSYGIEGLDEIIQDLNAADAVPGVVGWYPDVAGDTVVLEVLEGSGADVSGLLADAGVDASAVEVTSSAQPELYADIIGGLAYTMGGRCSVGFAATN
For the molecule B3, the “Residual Enzyme Activity” value stood at 1.000 in series [1] (incubation time 0 hours); 0.930 in series [1] (incubation time 3.1 hours); 1.032 in series [1] (incubation time 18.6 hours); 0.930 in series [1] (incubation time 44.0 hours); 0.737 in series [1] (incubation time 116.0 hours); 0.616 in series [1] (incubation time 164.0 hours). In addition, the “Residual Enzyme Activity” value in series [1] (incubation time 188.6 hours) stood at 0.581. The “Enzyme Activity, +1 mM Cu^2+” value in series [2] worked out at 92.3 mOD405/min. In addition, the “Relative Activity” value in series [2] came to 0.691. For the same molecule, in series [2], the “Enzyme Activity, Control (no Cu^2+)” value is 133.6 mOD405/min.

B4: Protease 10: known protease derived from Nocardiopsis sp. NRRL 18262, amino acids 1-188 of SEQ ID NO: 2 (protein)
chain: ADIIGGLAYTMGGRCSVGFAATNAAGQPGFVTAGHCGRVGTQVTIGNGRGVFEQSVFPGNDAAFVRGTSNFTLTNLVSRYNTGGYATVAGHNQAPIGSSVCRSGSTTGWHCGTIQARGQSVSYPEGTVTNMTRTTVCAEPGDSGGSYISGTQAQGVTSGGSGNCRTGGTTFYQEVTPMVNSWGVRLRT
In the case of B4, the “Residual Enzyme Activity” value in series [1] (incubation time 0 hours) is listed as 1.000; in series [1] (incubation time 3.1 hours) it was 0.952; in series [1] (incubation time 18.6 hours) it was 0.868; in series [1] (incubation time 44.0 hours), 0.874; in series [1] (incubation time 116.0 hours), 0.837; in series [1] (incubation time 164.0 hours), 0.752. Further, the “Residual Enzyme Activity” value in series [1] (incubation time 188.6 hours) is 0.723. For the same molecule, in series [2], the “Enzyme Activity, +1 mM Cu^2+” value was 80.3 mOD405/min. In series [2], the “Relative Activity” value is listed as 0.657. The “Enzyme Activity, Control (no Cu^2+)” value in series [2] worked out at 122.2 mOD405/min.

B5: Protease 18: protease from Nocardiopsis dassonvillei subsp. dassonvillei DSM 43235, amino acids 1-188 of SEQ ID NO: 12 (protein)
chain: APAPVPQTPVADDSAASMTEALKRDLDLTSAEAEELLSAQEAAIETDAEATEAAGEAYGGSLFDTETLELTVLVTDASAVEAVEATGAQATVVSHGTEGLTEVVEDLNGAEVPESVLGWYPDVESDTVVVEVLEGSDADVAALLADAGVDSSSVRVEEAEEAPQVYADIIGGLAYYMGGRCSVGFAAT
modifications: Nocardiopsis dassonvillei subspecies dassonvillei
As to B5, the “Stability in the presence of 1 mM Cu2+” value in series [1] was “stable”. For the same molecule, the “Residual Enzyme Activity” value in series [1] (incubation time 0 hours) came out at 1.000; in series [1] (incubation time 3.1 hours), 0.985; in series [1] (incubation time 18.6 hours) it was 1.008; in series [1] (incubation time 44.0 hours), 1.003; in series [1] (incubation time 116.0 hours) it was 0.982; in series [1] (incubation time 164.0 hours), 1.030. In series [1] (incubation time 188.6 hours), the “Residual Enzyme Activity” value stood at 0.993. For the same molecule, in series [1], the “Feature i): residual activity at least 0.80 after 164 hours with 1 mM Cu2+” value is “fulfil feature i)”. In addition, in series [2], the “Enzyme Activity, +1 mM Cu^2+” value turned out to be 158.0 mOD405/min. Further, in series [2], the “Enzyme Activity, Control (no Cu^2+)” value worked out at 193.1 mOD405/min.

B6: Protease 35: protease from Nocardiopsis prasina DSM 15649, amino acids 1-188 of SEQ ID NO: 8 (protein, listed as Nocardiopsis prasina)
chain: ATGPLPQSPTPEADAVSMQEALQRDLGLTPLEADELLAAQDTAFEVDEAAAEAAGDAYGGSVFDTETLELTVLVTDSAAVEAVEATGAGTELVSYGITGLDEIVEELNAADAVPGVVGWYPDVAGDTVVLEVLEGSGADVGGLLADAGVDASAVEVTTTEQPELYADIIGGLAYTMGGRCSVGFAATN
Consider B6, for which the “Residual Enzyme Activity” value is listed as 1.000 in series [1] (incubation time 0 hours); 0.960 in series [1] (incubation time 3.1 hours); 0.918 in series [1] (incubation time 18.6 hours); 0.852 in series [1] (incubation time 44.0 hours); 0.807 in series [1] (incubation time 116.0 hours); 0.745 in series [1] (incubation time 164.0 hours). Further, the “Residual Enzyme Activity” value in series [1] (incubation time 188.6 hours) was 0.733. Moreover, the “Enzyme Activity, +1 mM Cu^2+” value in series [2] was determined as 75.0 mOD405/min. In addition, the “Relative Activity” value in series [2] amounted to 0.687. Also, in series [2], the “Enzyme Activity, Control (no Cu^2+)” value worked out at 109.2 mOD405/min.
